These results are taken from US20240393333A1.

For experiment [1], the target named is human intestinal alkaline phosphatase (human) (UniProt P09923). Kind of experiment: immunoblot, serial dilution of human small intestinal lysate; 7.5 µg lysate loaded. For orientation: In western blotting, separated proteins are transferred to a membrane and probed.
For experiment [2] the target is unchanged. Kind of experiment: immunoblot, serial dilution of human small intestinal lysate; 3.75 µg lysate loaded.
The target is the same in experiment [3]. Kind of experiment: immunoblot, serial dilution of human small intestinal lysate; 0.015 µg lysate loaded.
The target is the same in experiment [4]. Kind of experiment: immunoblot, serial dilution of human small intestinal lysate; 0.029 µg lysate loaded.
For experiment [5] the target is unchanged. Kind of experiment: immunoblot, serial dilution of human small intestinal lysate; 0.059 µg lysate loaded.
The target is the same in experiment [6]. The experiment is described as follows: immunoblot, serial dilution of human small intestinal lysate; 0.117 µg lysate loaded.
The target is the same in experiment [7]. The experiment is described as follows: immunoblot, serial dilution of human small intestinal lysate; 0.234 µg lysate loaded.
Experiment [8] has the same target. Kind of experiment: immunoblot, serial dilution of human small intestinal lysate; 0.469 µg lysate loaded.
For experiment [9] the target is unchanged. Kind of experiment: immunoblot, serial dilution of human small intestinal lysate; 0.938 µg lysate loaded.
Experiment [10] has the same target. Kind of experiment: immunoblot, serial dilution of human small intestinal lysate; 1.875 µg lysate loaded.

UniProt P09923, sequence (P09923 20-503 limits assumed): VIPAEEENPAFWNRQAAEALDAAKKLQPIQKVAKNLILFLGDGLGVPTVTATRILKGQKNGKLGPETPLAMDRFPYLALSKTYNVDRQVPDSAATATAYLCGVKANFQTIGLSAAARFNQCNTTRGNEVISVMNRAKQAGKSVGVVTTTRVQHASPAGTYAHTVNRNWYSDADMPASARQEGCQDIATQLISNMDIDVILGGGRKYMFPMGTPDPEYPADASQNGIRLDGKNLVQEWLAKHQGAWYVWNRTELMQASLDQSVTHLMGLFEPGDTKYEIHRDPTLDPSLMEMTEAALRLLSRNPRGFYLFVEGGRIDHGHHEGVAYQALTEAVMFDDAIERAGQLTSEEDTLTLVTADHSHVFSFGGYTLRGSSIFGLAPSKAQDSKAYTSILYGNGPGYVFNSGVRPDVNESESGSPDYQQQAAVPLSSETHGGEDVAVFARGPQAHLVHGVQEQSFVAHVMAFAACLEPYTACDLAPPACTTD

With “primary rabbit polyclonal antibodies against human iAP (Abcam, ab7322) (antibody)”, the mean relative fluorescence units for the total iAP (relative fluorescence units) was 217000 in experiment [1]; 234000 in experiment [2]; 227 in experiment [3]; 1160 in [4]; 4920 in experiment [5]; 18200 in [6]. The mean relative fluorescence units for the total iAP (relative fluorescence units) was determined as 44100 in experiment [7], 75700 in experiment [8], 143000 in experiment [9] and 211000 in [10].
